From the RNAGym collection of RNA variant scans (doi:10.1073/pnas.2313332121)
This sample holds only a part of the variants without activity.

B1: TPR 5TU (parent)
chain: GGAUCUUCUCGAUCUAACAAAAAAGACAAAUCUGCCACAAAGCUUGAGAGCAUCUUCGGAUGCAGAGGCGGCAGCCUUCGGUGGCGCGAUAGCGCCAACGUUCUCAACUAUGACACGCAAAACGCGUGCUCCGUUGAAUGGAGUUUAUCAUG

Variants of: B1
Test: polymerase ribozyme fitness, log enrichment relative to wild type (log ratio); higher = more active; in vitro selection for triplet polymerase activity
Summary of the method: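 Fitness is a logarithmic measure of how a genotype enriched relative to the wild type, with replicate averages weighted by inverse variance. The logarithm uses base 2, and enrichment came from Illumina sequencing of input and output libraries. Those libraries were PCR-built, transcribed mutants of each subunit of a heterodimeric triplet polymerase ribozyme, passed through one triplicate in vitro selection round that included frozen incubation at −7 °C, gel excision of extended constructs and streptavidin-bead capture. Genotypes were kept only if they had ≥10 input reads and ≥1 read per output.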

Variant	polymerase ribozyme fitness (log ratio)
G34A A120C	0.113
C35G C79A G83A A121U	≤ -4.2
C35A C57U C85U C118U G128A G152U	-3.96
C32U G58C C63A	-3.84
C35A G42A A91U	-3.84
C32A C85G	≤ -4.2
C35G C76U G92A C123G A137U	≤ -4.2
C32G G59A G83A A98C A110G	-4.09
C35U G86A C105A A137U	≤ -4.2
U31G G94U A119U	-0.547
C35U G74C C99U	-4.12
C32G G50C C51U G88A A110G	-4.19
U31C U45A G70C G92C	≤ -4.2
U31C C95A C96A U134C G143A U145G	-3.45
U33G G94A C123G G136A	≤ -4.2
G34C G74A U109A C123U C149U	≤ -4.2
C35G U53G A64C C79G U109A A115U G128C A142G	≤ -4.2
U31C G83C U111C G152A	-3.66
C35A A47U C57U U101A C114G C123U	≤ -4.2
U31G G71U	≤ -4.2
G34A C85A A91C C103G	≤ -4.2

Variant	polymerase ribozyme fitness (log ratio)
C32G C87G C93U C99G U104A C123U	≤ -4.2
G34A C85U A147C U148G G152U	≤ -4.2
U31C C116A	1.96
U31C C76U C96U G136C U144C U148C	-3.9
U33A U56A G94A	≤ -4.2
U31G C32U C72A C123G G152A	≤ -4.2
C32A C38U U55A G94A G126C	-3.92
C35A G59U C69G	-2.14
C35U G74U G83C A107C G126A U148C	≤ -4.2
C32A U77G G88A G126C G143U	≤ -4.2
G34A U78G G86U A106G A115G A120G	≤ -4.2
C35U C75U G83A G84A C95U C96U	-1.5
U31C A49C G94U A121U	≤ -4.2
C32G G59C C96A U144A	≤ -4.2
C32G A39C A41C A52U G94C C116G	≤ -4.2
C32U G34C C51U U130G U145A	≤ -4.2
U33G C43U A49C U77G A91U U101A C105G	≤ -4.2
G34U U55A A91G G94U	≤ -4.2
C32G C57U G80C G86C G152U	≤ -4.2
U31C C57A G83U C118U G124U A142C	-2.24
U31C C35U A41G C54U G86C	-2.75

Variant	polymerase ribozyme fitness (log ratio)
C35G G50C U56A A64U G133C U148G	≤ -4.2
U33G G50C U56A U134G U145C	≤ -4.2
G34C G88U U144A	≤ -4.2
U31G A39G U55A A66C G68C C69U G117A	≤ -4.2
C35G G74A U90A C95U	≤ -4.2
U31C C69G C96U G117U C118G	-1.49
G34U A106G	-0.622
C35A A60C U102G	≤ -4.2
C35A C54G G83A C125A	≤ -4.2
C35A U45A U101A	-4.13
U31G C54G	-1.02
U33G A52G U130G C131U G133U U146A	≤ -4.2
U33A A52G A60U G84A C95G U109G A115U G133U G140C U146G	≤ -4.2
C35U A97G U134G U144G	-2.34
G34U G42A U82C U135C	≤ -4.2
U31C U56G C123A G136C	-2.61
C35U A39C U56C C63U A110C A115G A121G G126A	≤ -4.2
U31C C85G A98G	-1.26
C35G A49U G124C	≤ -4.2
U31C G70A A98G G124C	≤ -4.2
U31C U55A A97G	1.27

Variant	polymerase ribozyme fitness (log ratio)
C32U U77G C103G A138U	≤ -4.2
C35G A37C A52G G86U A97G	-4.2
C35U A98G C99A U101C G141A	≤ -4.2
C32U U56A G58A G68A C76A C93A	≤ -4.2
C32G C87U	-3.63
U33C A37G C63A C87G U111G U151A	≤ -4.2
U31C U44A G94C C96G U102G U151C	≤ -4.2
C35G G58C C75G C76U A89U C95G C108A A137C	≤ -4.2
C35U C51U A52C C76G C93G A115U	≤ -4.2
C32U A49U C51U C75U U102C U146G	≤ -4.2
U33A U45A G68U C87A U127C A137U	≤ -4.2
C32U U45A C54A G84A C85A G92A C93A	≤ -4.2
G34U U56G G58A C69G G94C A97G U134C	≤ -4.2
U31G G50U U56G	-1.97
U33C A41C	-3.48
C32U A37U U56C C95U U145G U148G	≤ -4.2
G34A U55A G70U G80U G86A	≤ -4.2
C32G A41C C75U	≤ -4.2
G34U G68U C95G G133A	≤ -4.2
U31G C43G U53A G83U	≤ -4.2
C32A A40U G62U C85G U146A	≤ -4.2
